Results as given in the Immune Epitope Database (IEDB).

Columns and labels:
HLA-B*15:01 [1] = experiment: IEDB peptide-MHC binding, purified MHC/direct/fluorescence; filed as Kd, often an IC50 or EC50 that approximates it; ≥ and ≤ were set here for values at or beyond the usual limits of such assays
HLA-A*02:03 = experiment: as above
HLA-A*02:11 = experiment: as above
HLA-A*24:03 [2] = experiment: as above
HLA-A*02:12 [3] = experiment: as above
HLA-A*02:16 = experiment: as above
HLA-A*03:01 [4] = experiment: as above
HLA-A*02:19 = experiment: as above
HLA-A*68:02 = experiment: as above
HLA-A*69:01 [5] = experiment: IEDB peptide-MHC binding, purified MHC/competitive/fluorescence; filed as Kd, often an IC50 or EC50 that approximates it; ≥ and ≤ were set here for values at or beyond the usual limits of such assays
HLA-A*02:01 [6] = experiment: as above
HLA-B*57:01 = experiment: as above
HLA-B*18:01 = experiment: as above
HLA-B*27:03 = experiment: as above
HLA-B*15:17 = experiment: as above
HLA-B*51:01 = experiment: as above
HLA-B*39:01 = experiment: as above
HLA-B*46:01 = experiment: as above
HLA-A*11:01 [7] = experiment: IEDB peptide-MHC binding, purified MHC/competitive/fluorescence; ≥ and ≤ were set here for values at or beyond the usual limits of such assays
HLA-A*03:01 [8] = experiment: as above
HLA-A*11:01 [9] = experiment: IEDB peptide-MHC binding, purified MHC/competitive/fluorescence; filed as Kd, often an IC50 or EC50 that approximates it; ≥ and ≤ were set here for values at or beyond the usual limits of such assays
HLA-A*03:01 [10] = experiment: as above; settings: source organism: Encephalitozoon cuniculi GB-M1
HLA-A*31:01 [11] = experiment: as above; settings: source organism: Encephalitozoon cuniculi GB-M1
HLA-A*01:01 [12] = experiment: as above
HLA-A*29:02 = experiment: IEDB peptide-MHC binding, purified MHC/direct/fluorescence; filed as Kd, often an IC50 or EC50 that approximates it; ≥ and ≤ were set here for values at or beyond the usual limits of such assays
HLA-A*26:01 [13] = experiment: as above
HLA-A*24:03 [14] = experiment: IEDB peptide-MHC binding, purified MHC/competitive/fluorescence; filed as Kd, often an IC50 or EC50 that approximates it; ≥ and ≤ were set here for values at or beyond the usual limits of such assays; settings: source organism: Lechiguanas virus
HLA-A*26:01 [15] = experiment: as above
HLA-A*02:01 [16] = experiment: IEDB peptide-MHC binding, purified MHC/competitive/fluorescence; ≥ and ≤ were set here for values at or beyond the usual limits of such assays
HLA-A*02:12 [17] = experiment: IEDB peptide-MHC binding, purified MHC/competitive/fluorescence; filed as Kd, often an IC50 or EC50 that approximates it; ≥ and ≤ were set here for values at or beyond the usual limits of such assays; settings: source organism: Shigella dysenteriae Sd197
HLA-B*15:01 [18] = experiment: IEDB peptide-MHC binding, purified MHC/competitive/fluorescence; ≥ and ≤ were set here for values at or beyond the usual limits of such assays; settings: source organism: Sudan ebolavirus
HLA-B*40:01 = experiment: IEDB peptide-MHC binding, purified MHC/direct/fluorescence; filed as Kd, often an IC50 or EC50 that approximates it; ≥ and ≤ were set here for values at or beyond the usual limits of such assays; settings: source organism: Yersinia pestis Nepal516
HLA-B*27:05 = experiment: as above; settings: source organism: Yersinia pestis Nepal516
HLA-B*58:01 = experiment: as above; settings: source organism: Yersinia pestis Nepal516
HLA-A*11:01 [19] = experiment: as above; settings: source organism: Yersinia pestis Nepal516
HLA-B*07:02 = experiment: as above; settings: source organism: Yersinia pestis Nepal516
HLA-B*44:02 = experiment: as above; settings: source organism: Yersinia pestis Nepal516
HLA-B*08:01 = experiment: as above; settings: source organism: Yersinia pestis Nepal516
HLA-A*69:01 [20] = experiment: as above; settings: source organism: Yersinia pestis Nepal516
HLA-A*02:01 [21] = experiment: as above; settings: source organism: Yersinia pestis
HLA-A*31:01 [22] = experiment: as above; settings: source organism: Yersinia pestis Nepal516
HLA-B*35:01 = experiment: as above; settings: source organism: Yersinia pestis
HLA-A*01:01 [23] = experiment: as above; settings: source organism: Yersinia pestis Nepal516
[24] = source organism: Araucaria virus
[25] = source organism: Vaccinia virus WR
[26] = source organism: Zaire ebolavirus
[27] = source organism: New York virus
[28] = source organism: Sudan ebolavirus
[29] = source organism: Rio Mamore hantavirus
[30] = source organism: Lechiguanas virus
[31] = source organism: Salmonella enterica subsp. enterica serovar Typhi
[32] = source organism: Vaccinia virus
[33] = source organism: Yersinia pestis
[34] = source organism: Yersinia pestis Nepal516

Question: Which Kd (HLA-B*15:01 [1]; source organism: Itapua hantavirus) does the source give for AFMATNKAY here?
Answer: 0.0944 µM

Question: What about the Kd (HLA-A*02:03; [24]) of the same sequence?
Answer: ≥ 20 µM

Question: And the Kd (HLA-A*02:11; [24])?
Answer: ≥ 20 µM

Question: What about the Kd (HLA-A*24:03 [2]; [24]) of the same sequence?
Answer: ≥ 20 µM

Question: What about the Kd (HLA-A*02:12 [3]; [24]) of the same sequence?
Answer: ≥ 20 µM

Question: And the Kd (HLA-A*02:16; [24])?
Answer: ≥ 20 µM

Question: What about the Kd (HLA-A*03:01 [4]; [24]) of the same sequence?
Answer: ≥ 20 µM

Question: And the Kd (HLA-A*02:19; [24])?
Answer: ≥ 20 µM

Question: What about the Kd (HLA-A*68:02; [24]) of the same sequence?
Answer: ≥ 20 µM

Question: And the Kd (HLA-A*69:01 [5]; [24])?
Answer: ≥ 20 µM

Question: What about the Kd (HLA-A*02:01 [6]; [24]) of the same sequence?
Answer: ≥ 20 µM

Question: And the Kd (HLA-B*57:01; [24])?
Answer: ≥ 20 µM

Question: And the Kd (HLA-B*18:01; [24])?
Answer: ≥ 20 µM

Question: And the Kd (HLA-B*27:03; [24])?
Answer: ≥ 20 µM

Question: And the Kd (HLA-B*15:17; [24])?
Answer: ≥ 20 µM

Question: What about the Kd (HLA-B*51:01; [24]) of the same sequence?
Answer: ≥ 20 µM

Question: What about the Kd (HLA-B*39:01; [24]) of the same sequence?
Answer: ≥ 20 µM

Question: And the Kd (HLA-B*46:01; [24])?
Answer: ≥ 20 µM

Question: Which results are given for AFYTRVLKP?
Answer: IC50 (HLA-A*11:01 [7]; [25]): 24.2 µM; IC50 (HLA-A*03:01 [8]; [25]): ≥ 202 µM

Question: AGLITGGRR was tested. Which IC50 (HLA-A*11:01 [7]; [26]) did it give?
Answer: 6.55 µM

Question: And the IC50 (HLA-A*03:01 [8]; [26])?
Answer: 69.9 µM

Question: What does the source list for CVNDGGLFY?
Answer: Kd (HLA-A*11:01 [9]; source organism: Encephalitozoon cuniculi GB-M1): 0.11 µM; Kd (HLA-A*03:01 [10]): 1.01 µM; Kd (HLA-A*31:01 [11]): 0.692 µM

Question: For FTDPEIVAE, which Kd (HLA-A*01:01 [12]; source organism: Escherichia coli O139:H28 str. E24377A) is on record?
Answer: ≥ 20 µM

Question: How did the Kd (HLA-A*24:03 [2]; source organism: Choclo virus) turn out when FVKDWMDRI was run?
Answer: ≥ 20 µM

Question: What about the Kd (HLA-A*02:12 [3]; source organism: Choclo virus) of the same sequence?
Answer: ≥ 20 µM

Question: And the Kd (HLA-A*02:16; source organism: Choclo virus)?
Answer: ≥ 20 µM

Question: And the Kd (HLA-A*03:01 [4]; source organism: Choclo virus)?
Answer: ≥ 20 µM

Question: What about the Kd (HLA-A*02:19; source organism: Choclo virus) of the same sequence?
Answer: ≥ 20 µM

Question: What about the Kd (HLA-A*29:02; source organism: Choclo virus) of the same sequence?
Answer: ≥ 20 µM

Question: What about the Kd (HLA-A*26:01 [13]; source organism: Hantavirus Monongahela-3) of the same sequence?
Answer: 0.0656 µM

Question: What about the Kd (HLA-A*69:01 [5]; [27]) of the same sequence?
Answer: ≥ 20 µM

Question: What about the Kd (HLA-A*02:01 [6]; [27]) of the same sequence?
Answer: ≥ 20 µM

Question: And the Kd (HLA-B*57:01; [27])?
Answer: ≥ 20 µM

Question: And the Kd (HLA-B*18:01; [27])?
Answer: ≥ 20 µM

Question: And the Kd (HLA-B*27:03; [27])?
Answer: ≥ 20 µM

Question: And the Kd (HLA-B*15:17; [27])?
Answer: ≥ 20 µM

Question: What about the Kd (HLA-B*51:01; [27]) of the same sequence?
Answer: ≥ 20 µM

Question: And the Kd (HLA-B*39:01; [27])?
Answer: ≥ 20 µM

Question: And the Kd (HLA-B*46:01; [27])?
Answer: ≥ 20 µM

Question: GVRGFPRCR was tested. Which IC50 (HLA-A*11:01 [7]; [28]) did it give?
Answer: 33.2 µM

Question: What about the IC50 (HLA-A*03:01 [8]; [28]) of the same sequence?
Answer: 1.12 µM

Question: How did the Kd (HLA-A*11:01 [9]; source organism: Influenza A virus (A/California/04/2009(H1N1))) turn out when ITDRLFFK was run?
Answer: 0.175 µM

Question: Which results are given for LQPSDTLLF?
Answer: Kd (HLA-A*02:03; [29]): ≥ 20 µM; Kd (HLA-A*02:11; [29]): ≥ 20 µM; Kd (HLA-A*02:12 [3]; [29]): ≥ 20 µM; Kd (HLA-A*02:16; [29]): ≥ 20 µM; Kd (HLA-A*03:01 [4]; [29]): ≥ 20 µM; Kd (HLA-A*02:19; [29]): ≥ 20 µM; Kd (HLA-A*68:02; [29]): ≥ 20 µM; Kd (HLA-A*29:02; [29]): ≥ 20 µM; Kd (HLA-A*69:01 [5]; [30]): ≥ 20 µM; Kd (HLA-A*24:03 [14]): 0.0049 µM; Kd (HLA-A*02:01 [6]; [30]): ≥ 20 µM; Kd (HLA-B*57:01; [30]): ≥ 20 µM; Kd (HLA-B*18:01; [30]): ≥ 20 µM; Kd (HLA-B*27:03; [30]): ≥ 20 µM; Kd (HLA-B*15:17; [30]): ≥ 20 µM; Kd (HLA-B*51:01; [30]): ≥ 20 µM; Kd (HLA-A*26:01 [15]; [30]): ≥ 20 µM; Kd (HLA-B*39:01; [30]): ≥ 20 µM; Kd (HLA-B*46:01; [30]): ≥ 20 µM

Question: MVAYMLER was tested. Which Kd (HLA-A*11:01 [9]; source organism: Paramagnetospirillum magnetotacticum MS-1) did it give?
Answer: 3.25 µM

Question: Which results are given for MVEASGGRY?
Answer: Kd (HLA-A*26:01 [15]; [31]): 1.42 µM; Kd (HLA-A*01:01 [12]; [31]): 0.122 µM

Question: With SLMEMDYER as the sequence, how does the IC50 (HLA-A*11:01 [7]; [32]) read?
Answer: 1.9 µM

Question: And the IC50 (HLA-A*02:01 [16]; [32])?
Answer: 2.2 µM

Question: And the IC50 (HLA-A*03:01 [8]; [32])?
Answer: ≥ 155 µM

Question: Which Kd (HLA-A*01:01 [12]; source organism: Homo sapiens) does the source give for SMIYFFHHY here?
Answer: ≥ 20 µM

Question: Which Kd (HLA-A*02:12 [17]) does the source give for SVFSRPLPL here?
Answer: 0.184 µM

Question: What about the Kd (HLA-A*02:01 [6]; source organism: Shigella dysenteriae Sd197) of the same sequence?
Answer: ≤ 0.0001 µM

Question: What does the source list for TQVEQHHRR?
Answer: IC50 (HLA-A*11:01 [7]; [26]): 1.67 µM; IC50 (HLA-A*03:01 [8]; [26]): ≥ 138 µM

Question: Which IC50 (HLA-B*15:01 [18]) does the source give for VIYRGVNFA here?
Answer: ≥ 89.1 µM

Question: And the IC50 (HLA-A*11:01 [7]; [28])?
Answer: 25.1 µM

Question: What about the IC50 (HLA-A*02:01 [16]; [28]) of the same sequence?
Answer: 3.89 µM

Question: What about the IC50 (HLA-A*03:01 [8]; [28]) of the same sequence?
Answer: 5.02 µM

Question: What does the source list for YLHRDIFDI?
Answer: Kd (HLA-B*15:01 [1]; [33]): 8.64 µM; Kd (HLA-B*40:01): ≥ 20 µM; Kd (HLA-B*27:05): ≥ 20 µM; Kd (HLA-B*58:01): ≥ 20 µM; Kd (HLA-A*11:01 [19]): ≥ 20 µM; Kd (HLA-B*07:02): ≥ 20 µM; Kd (HLA-B*44:02): ≥ 20 µM; Kd (HLA-B*08:01): ≥ 20 µM; Kd (HLA-A*69:01 [20]): ≥ 20 µM; Kd (HLA-A*24:03 [2]; [33]): ≥ 20 µM; Kd (HLA-A*02:01 [21]): 0.0365 µM; Kd (HLA-A*03:01 [4]; [34]): ≥ 20 µM; Kd (HLA-A*31:01 [22]): ≥ 20 µM; Kd (HLA-B*35:01): 0.113 µM; Kd (HLA-A*26:01 [13]; [34]): ≥ 20 µM; Kd (HLA-A*01:01 [23]): ≥ 20 µM
